In patent US20230041071A1 (NATIONAL INSTITUTE OF BIOLOGICAL SCIENCES BEIJING, published 2023):
Residue numbers refer to the chain shown, from its start. Where no end group is shown, it is not given here.

T1: hAREG-98aa (human, UniProt P15514 101-198)
T1 construct: Bought protein
T1 sequence (looked up): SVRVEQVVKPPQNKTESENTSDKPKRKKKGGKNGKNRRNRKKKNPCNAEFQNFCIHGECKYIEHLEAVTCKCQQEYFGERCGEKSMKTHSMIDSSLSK

T2: hAREG-EGFd-mFc (human; mouse, UniProt P15514 142-184)
T2 construct: Expressed in 293F cells; not shown: Fc fragment of mouse IgG2a
T2 chain: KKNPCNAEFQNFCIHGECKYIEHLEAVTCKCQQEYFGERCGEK

T3: hAREG: human AREG comprising residues 101-184 of the human pro-AREG with an N-terminal AVI tag (human, biotinylated using BirA enzyme (Avi tag))
T3 construct: Expressed in E. coli with His6-TRX-3C site-Avi tags and cleaved by HRV 3C protease; also called biotinylated hAREG
T3 chain: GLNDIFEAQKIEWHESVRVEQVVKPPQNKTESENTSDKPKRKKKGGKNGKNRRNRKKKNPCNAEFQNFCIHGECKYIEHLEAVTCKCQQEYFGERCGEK

T4: mAREG-EGFd-DLLA-mFc (mouse, UniProt P31955 135-177, limits assumed)
T4 construct: Expressed in 293F cells; also called mAREG-DLLA
T4 chain: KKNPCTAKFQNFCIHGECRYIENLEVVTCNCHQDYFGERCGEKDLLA

T5: mAREG: mouse AREG comprising residues 94-177 of the mouse pro-AREG with an N-terminal AVI tag (mouse, biotinylated using BirA enzyme (Avi tag))
T5 construct: Expressed in E. coli, cleaved by HRV 3C protease, biotinylated; also called biotinylated mAREG
T5 chain: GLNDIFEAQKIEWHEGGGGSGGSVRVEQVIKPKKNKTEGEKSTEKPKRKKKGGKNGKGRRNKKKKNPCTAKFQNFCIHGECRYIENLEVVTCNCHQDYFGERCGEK

T6: C18 peptide (human, cysteine pairing not given here; also: biotinylated, position not given here)
T6 construct: Synthetic (Scilight-peptide); also called hAREG-C18; C-terminal peptide
T6 peptide: GSSGKCQQEYFGERCGEK

T7: hAREG-H164N variant (human, UniProt P15514 142-184)
T7 construct: also called H164N variant of hAREG-EGFd
T7 chain: T2 chain with H23N

T8: hAREG-E149K variant (human, UniProt P15514 142-184)
T8 construct: also called E149K variant of hAREG-EGFd
T8 chain: T2 chain with E8K

T9: mAREG-EGFd-mFc (mouse, UniProt P31955 135-177)
T9 construct: also called EGF domain of mAREG (aa135-177) fused with mFc tag; not shown: mFc tag (Fc fragment of mouse IgG2a as for hAREG-EGFd-mFc)
T9 chain: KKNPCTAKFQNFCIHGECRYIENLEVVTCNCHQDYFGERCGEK

B1: hu23H8v6 (antibody, V domains shown)
VH: EVQLVESGGGLVKPGGSLRLSCAASGFTFSSYAMSWVRQAPGKGLEWVSTISTGGSHTYYPESVKGRFTISRDNAKNSLYLQMNSLRAEDTAVYYCARHGYLLYEGYYEWYFDYWGQGTLVTVSS
VL: DIVMTQSPDSLAVSLGERATINCKSSQSVDYEGHSFLNWYQQKPGQPPKLLIYAASNRESGVPDRFSGSGSGTDFTLTISSLQAEDVAVYYCQQSTENPPYTFGQGTKLEIK
notes: Humanized 23H8 variant
B2: 9C12 (antibody, V domains shown)
VH: EVKLVESGGGLVKPGGSLKLSCAASGFTFSSYPMSWVRQTPEKRLEWVATISTGGTYTYYPDSVKGRFTISRDNAKNTLYLQMSSLRSEDTAMYYCARQGPIYYGNYYYAMDYWGQGTSVTVSS
VL: DIVMTQPPLSLPVSLGDQASISCRSSQSLVHSDGNTYLHWYLQRPGQSPKLLIYKVSNRFSGVPDRFSGSGSGTDFTLKISRVEAEDLGVYFCSQSTHVPYTFGGGTKLEIK
notes: Mouse hybridoma mAb; made recombinantly as mIgG1, mIgG2a or chimeric human IgG1; also called m9C12
B3: P7 (antibody, V domains shown)
VH: EVQLVQSGGGVVQPGRSLRLSCAASGFIFSSHAMSWVRQAPGKGLEWVSAISGSGGSTYYADSVKGRFTISRDNSKNTLYLQMNSLRAEDTAVYYCAKVDTKFDPWGQGTLVTVSS
VL: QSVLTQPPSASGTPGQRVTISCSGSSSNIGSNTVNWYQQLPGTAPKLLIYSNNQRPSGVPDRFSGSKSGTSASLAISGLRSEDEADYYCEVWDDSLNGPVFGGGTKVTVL
notes: Human mAb from a phage scFv library, selected on the C18 peptide; Human IgG1 or mouse IgG2a format
B4: hu9C12v4 (antibody, V domains shown)
VH: EVQLVESGGGLVKPGGSLRLSCAASGFTFSSYPMSWVRQAPEKGLEWVSTISTGGRYTYYPDSVKGRFTISRDNAKNSLYLQMNSLRAEDTAVYYCARQGPIYYGNYYYAMDYWGQGTTVTVSS
VL: DIVMTQSPLSLPVTLGDPASISCRSSQSLVDGEDGTYLNWFQQRPGQSPKLLIYKVSERFDGVPDRFSGSGSGTDFTLKISRVEAEDVGVYYCSQSTHVPYTFGGGTKVEIK
notes: Humanized 9C12 variant
B5: hu9C12v5 (antibody, V domains shown)
VH: B4 VH with R56T, Y103L, Y104R, G105K, A110G, Y113V
VL: B4 VL with I2V, E33Q, N39H, F41Y, E58N, G105Q, V109L
notes: Humanized 9C12 variant; captured by anti-human Fc in SPR
B6: 23H8 (antibody, V domains shown)
VH: EVQLQESGGGLVKPGGSLKLSCAASGFTFNSYAMSWVRQTPEKRLEWVATISTGGSHTYYPDSVKGRFTISRDNAKNTLYLQMSSLRSEDTAMYYCARHGYLLYDGYYEWYFDVWGAGTTVTVSS
VL: DIVLTQSPASLAVSLGQRATISCKASQSVDYDGHSFLNWYQQKPGQPPKLLIYAASNLESGLPARFSGSGSGTDFTLNIHPVEEEDAATYYCQQSTEDPPYTFGGGTKLEIK
notes: Mouse hybridoma mAb; made recombinantly as mIgG1, mIgG2a or chimeric human IgG1; also called m23H8
B7: E1H3L4 (antibody, V domains shown)
VH: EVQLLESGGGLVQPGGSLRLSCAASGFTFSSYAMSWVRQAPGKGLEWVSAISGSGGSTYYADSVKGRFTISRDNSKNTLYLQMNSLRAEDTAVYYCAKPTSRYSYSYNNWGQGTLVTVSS
VL: QAVLTQPPSASGTPGQRVTISCTGNSNNVGDQGAVWYQQLPGTAPKLLIYRNNNRPSGVPDRFSGSKSGTSASLAISGLQSEDEADYYCSTWDKNNKSVVFGGGTKLTVL
notes: Human IgG1 or mouse IgG2a format

Columns and labels:
hAREG-98aa = target: T1, hAREG-98aa; test: SPR, Biacore T200; mAb captured on anti-human Fc chip, antigen in solution
Description: (§1) To evaluate affinities of different mouse hybridoma mAbs or their humanized and engineered variants, SPR measurement was performed using Biacore T200 instrument. mAbs were captured on anti-human Fc CM5 biosensor chip surface, hAREG-EGFd-mFc, mAREG-EGFd-mFc or hAREG-98aa (purchased from PeproTech, cat #100-55B) in serial dilutions were injected over antibody-bound surface, followed by a dissociation phase. Association rates (Ka) and dissociation rates (Kd) were calculated using the one-to-one Langmuir binding model (BIA Evaluation Software, GE Life Sciences). The equilibrium dissociation constant (KD) was calculated as the ratio kd/ka.

hAREG-EGFd-mFc = target: T2, hAREG-EGFd-mFc; test: as above
Description: as §1

[1] = target: T3, hAREG: human AREG comprising residues …; test: hybridoma screening by ELISA on biotinylated hAREG and SPR
Description: The supernatant of hybridoma clones were examined for binding activity to biotinylated hAREG by ELISA. Clones with high binding activity were selected and expanded for subsequent subcloning, and the supernatant of the subclones were analyzed by ELISA and SPR. The SPR analysis was performed using Biacore T200 instrument (GE Life Sciences). Diluted supernatant was captured on anti-mFc CM5 biosensor chip, then 200 nM of hAREG EGF domain-hFc flowed in mobile phase. Subclones with high affinity was expanded for RNA extraction. Cells were resuspended in TRIzol (Life Technologies), and total RNA was extracted following the instruction manual. The cDNA of subclones was synthesized using PrimeScript™ RT Master Mix (TaKaRa). The VH and VL genes of each antibody were amplified using a set of PCR primers specific to mouse antibody variable genes. PCR products were cloned into a PCR sequencing vector for sequencing.

[2] = target: T3, hAREG: human AREG comprising residues …; test: ELISA, biotinylated hAREG captured on streptavidin-coated plate, bound IgG detected with HRP anti-Fc antibody
Description: (§2) Streptavidin (Sigma, […]) in phosphate buffered saline (PBS) was coated in U-bottom 96-well plate (Nunc, MaxiSorp™), 100 μL per well, at 4° C. overnight or 37° C. for 1 hour.
(§3) About […] of AREG protein or peptide at 100 μL per well were then captured onto the plates by incubation at 30° C. for 1 hour. For phage-scFv based ELISA, serial diluted phage-scFvs in PBS containing 2% nonfat milk were added to each well at 100 μL per well. Specific bound phage-scFvs were detected by adding HRP-conjugated mouse anti-M13 antibody (GE Healthcare) and incubated for 30 mins at 30° C. In between each incubation step, the ELISA plate was washed for 6 times with PBST solution (0.05% Tween20 containing PBS) at 300 µL per well. Followed by HRP-conjugated antibody incubation, the ELISA signal was developed by incubating with TMB substrate (Sigma) for 5-10 mins at 30° C. and then the reaction was stopped with 2M H₂SO₄ at 50 µL per well. The absorbance at 450 nm with the correction wavelength set at 630 nm was read by a microplate reader (Bio-Rad). For IgG based ELISA, the method was basically the same as described above for phage-scFvs except the bound antibodies were detected by HRP-conjugated mouse anti-Fc secondary antibody (Thermo Fisher Scientific).

mAREG-EGFd-DLLA-mFc = target: T4, mAREG-EGFd-DLLA-mFc; test: competition ELISA; antibody titrated against 50 nM mAREG-DLLA on captured mEGFR-ECD
Description: Briefly, streptavidin (Sigma, 5 μg/mL) were coated in U-bottom 96-well plates, 100 nM biotinylated hEGFR-ECD or mEGFR-ECD in 100 μL per well were then captured onto the plates. Different antibodies at serial diluted concentrations were mixed with 5 nM hAREG-DLLA or 50 nM mAREG-DLLA protein and added to the ELISA plate. The binding of hAREG-DLLA to hEGFR-ECD or the binding of mAREG-DLLA to mEGFR-ECD was detected by HRP-conjugated mouse anti-mouse IgG Fc antibody (Thermo Fisher).
To facilitate the competition ELISA assay, we used the hAREG-EGFd-DLLA-mFc (hAREG-DLLA) or mAREG-EGFd-DLLA-mFc (mAREG-DLLA) as the ligands for binding to EGFR in the assay.

[3] = target: T5, mAREG: mouse AREG comprising residues …; test: ELISA, biotinylated mAREG captured on streptavidin-coated plate, bound IgG detected with HRP anti-Fc antibody
Description: as §2, §3

C18 peptide = target: T6, C18 peptide; test: ELISA, biotinylated C18 peptide captured on streptavidin-coated plate, bound IgG detected with HRP anti-Fc antibody
Description: as §2, §3

hAREG-H164N variant = target: T7, hAREG-H164N variant; test: SPR (Biacore T200)
hAREG-E149K variant = target: T8, hAREG-E149K variant; test: SPR (Biacore T200)
mAREG-EGFd-mFc = target: T9, mAREG-EGFd-mFc; test: SPR, Biacore T200; mAb captured on anti-human Fc chip, antigen in solution
Description: as §1

Binder | Kd (hAREG-98aa) | kon (hAREG-98aa) | Kd (hAREG-EGFd-mFc) | koff (hAREG-EGFd-mFc) | kon (hAREG-EGFd-mFc) | binding result (mAREG-EGFd-DLLA-mFc) | further results
B1 | 0.537 nM | 1.11e+06 M⁻¹ s⁻¹ | 0.309 nM | 0.000246 s⁻¹ | 803000 M⁻¹ s⁻¹ | – | –
B2 | – | – | – | – | – | – | binding result [1]: binds
B3 | – | – | – | – | – | binds | EC50 (read off the curve) [2]: ~0.08 nM; EC50 (read off the curve) [3]: ~0.9 nM; EC50 (read off the curve) (C18 peptide): ~0.06 nM
B4 | 0.462 nM | 8.04e+06 M⁻¹ s⁻¹ | 1.04 nM | 0.00077 s⁻¹ | 745000 M⁻¹ s⁻¹ | binds | binding result (hAREG-H164N variant): no binding; binding result (hAREG-E149K variant): binds; koff (hAREG-98aa): 0.00372 s⁻¹; Kd (mAREG-EGFd-mFc): 9.01 nM
B5 | 0.349 nM | 8.11e+06 M⁻¹ s⁻¹ | 0.852 nM | 0.000411 s⁻¹ | 483000 M⁻¹ s⁻¹ | – | koff (hAREG-98aa): 0.00283 s⁻¹
B6 | – | – | – | – | – | – | binding result [1]: binds
B7 | – | – | – | – | – | binds | EC50 (read off the curve) [2]: ~0.06 nM; EC50 (read off the curve) [3]: ~0.5 nM; EC50 (read off the curve) (C18 peptide): ~0.2 nM
